Test results: publication PMC7225057
Like-named read-outs stand apart in the source and are kept apart here.

Assays:
[1] = biological target: biotinylated sCT(1–32) [C1A/C7A] (salmon); assay: BLI
[2] = biological target: biotinylated sCT(1–32) [C1A/C7A] (salmon); assay: BLI; remark: listed apart in the source
FITC-sCT(22–32) (salmon) = assay: fluorescence polarisation
[3] = biological target: FITC-AM(37–52) [S45W/Q50W]; assay: fluorescence polarisation
[4] = biological target: Endo H-treated CTR.38–141 N130D (MBP-free CTR ECD) (human); assay: fluorescence polarisation
[5] = biological target: Glycan-free CTR.38–141 WT (E. coli-produced, MBP-free CTR ECD) (human); assay: fluorescence polarisation
[6] = biological target: Endo H-treated CTR.38–141 WT (MBP-free CTR ECD) (human); assay: fluorescence polarisation
[7] = biological target: FITC-AM(37–52) [S45W/Q50W]; assay: fluorescence polarisation; remark: listed apart in the source

Question: “Glycan-free CTR.38–141 WT (E. coli-produced, MBP-free CTR ECD) (domain or fragment)” was tested. Which Kd [1] did it give?
Answer: The Kd was 10800 nM.

Question: What about the Kd [2] of the same substance?
Answer: Its Kd is 30900 nM.

Question: And the Kd (FITC-sCT(22–32) (salmon))?
Answer: The Kd was 2700 nM.

Question: What about the pKD (FITC-sCT(22–32) (salmon)) of the same substance?
Answer: The pKD was 5.57.

Question: Which Kd [3] does the source give for “RAMP1-CLR.29–144 WT, PNGase F-treated (deglycosylated) (from UniProt O60894 24-111; Q16602 29-144) (receptor)” here?
Answer: Its Kd is 1400 nM.

Question: What about the pKD [3] of the same substance?
Answer: Its pKD is 5.87.

Question: Which results are given for “CTR.34–141 WT (MBP-free CTR ECD, glycosylated, no enzyme treatment) (domain or fragment)”?
Answer: Kd (FITC-sCT(22–32) (salmon)): 380 nM; pKD (FITC-sCT(22–32) (salmon)): 6.43

Question: Which kon [2] does the source give for “Endo H-treated CTR.38–141 WT (MBP-free CTR ECD) (domain or fragment)” here?
Answer: Its kon is 178000 M⁻¹ s⁻¹.

Question: What about the Kd (FITC-sCT(22–32) (salmon)) of the same substance?
Answer: Its Kd is 500 nM.

Question: And the pKD (FITC-sCT(22–32) (salmon))?
Answer: The pKD was 6.3.

Question: With “Endo H-treated CTR.38–141 N130D (MBP-free CTR ECD) (domain or fragment)” as the substance, how does the Kd [1] read?
Answer: Its Kd is 11900 nM.

Question: And the Kd [2]?
Answer: Its Kd is 12400 nM.

Question: And the Kd (FITC-sCT(22–32) (salmon))?
Answer: Its Kd is 2000 nM.

Question: And the pKD (FITC-sCT(22–32) (salmon))?
Answer: The pKD was 5.7.

Question: For “RAMP1-CLR.29–144 N123D (tethered RAMP1-CLR ECD fusion) (from UniProt O60894 24-111; Q16602 29-144) (receptor)”, which Kd [3] is on record?
Answer: The Kd was 740 nM.

Question: What about the pKD [3] of the same substance?
Answer: The pKD was 6.13.

Question: How did the Ki [4] turn out when “salmon calcitonin sCT(22–32), unlabeled (peptide)” was run?
Answer: Its Ki is 5600 nM.

Question: And the pKI [4]?
Answer: Its pKI is 5.26.

Question: And the Ki [5]?
Answer: Its Ki is 11000 nM.

Question: And the pKI [5]?
Answer: Its pKI is 4.97.

Question: And the Ki [6]?
Answer: The Ki was 1600 nM.

Question: And the pKI [6]?
Answer: The pKI was 5.81.

Question: What does the source list for “RAMP1-CLR.29–144 WT (tethered RAMP1-CLR ECD fusion, CGRP receptor ECD) (from UniProt O60894 24-111; Q16602 29-144)”?
Answer: Kd [7]: 280 nM; pKD [7]: 6.56; Kd [3]: 310 nM; pKD [3]: 6.51
